± gives the uncertainty stated by the source.
assay: abundance fitness (aPCA) (normalised: wild type 0, dead -1); higher = more abundant; growth selection in yeast, the domain comes from the species named; details: Homo sapiens

Point of comparison: “DnaJ homolog subfamily B member 1 P39A, P25685”, abundance fitness -0.037 ± 0.074. Against it:
- DnaJ homolog subfamily B member 1 L29V, P25685 — within error, -0.052 ± 0.076
- DnaJ homolog subfamily B member 1 L29W, P25685 — within error, -0.111 ± 0.068
- DnaJ homolog subfamily B member 1 L29Y, P25685 — within error, -0.008 ± 0.089
- DnaJ homolog subfamily B member 1 L55C, P25685 — lower, -0.788 ± 0.2
- DnaJ homolog subfamily B member 1 L55E, P25685 — lower, -0.752 ± 0.099
- DnaJ homolog subfamily B member 1 L55F, P25685 — lower, -0.649 ± 0.1
- DnaJ homolog subfamily B member 1 L55G, P25685 — lower, -0.687 ± 0.081
- DnaJ homolog subfamily B member 1 L55H, P25685 — lower, -0.686 ± 0.14
- DnaJ homolog subfamily B member 1 L55I, P25685 — lower, -0.354 ± 0.11
- DnaJ homolog subfamily B member 1 L55K, P25685 — lower, -0.781 ± 0.11
- DnaJ homolog subfamily B member 1 L55M, P25685 — lower, -0.464 ± 0.11
- DnaJ homolog subfamily B member 1 L55N, P25685 — lower, -0.603 ± 0.17
- DnaJ homolog subfamily B member 1 L55P, P25685 — lower, -0.705 ± 0.088
- DnaJ homolog subfamily B member 1 L55Q, P25685 — lower, -0.747 ± 0.1
- DnaJ homolog subfamily B member 1 L55R, P25685 — lower, -0.769 ± 0.069
- DnaJ homolog subfamily B member 1 L55S, P25685 — lower, -0.524 ± 0.086
- DnaJ homolog subfamily B member 1 L55T, P25685 — lower, -0.636 ± 0.1
- DnaJ homolog subfamily B member 1 L55V, P25685 — lower, -0.347 ± 0.08
- DnaJ homolog subfamily B member 1 L55W, P25685 — lower, -0.932 ± 0.1
- DnaJ homolog subfamily B member 1 L55Y, P25685 — lower, -0.873 ± 0.16
- DnaJ homolog subfamily B member 1 N36A, P25685 — within error, 0.038 ± 0.084
- DnaJ homolog subfamily B member 1 N36C, P25685 — within error, 0.124 ± 0.17
- DnaJ homolog subfamily B member 1 N36D, P25685 — within error, -0.221 ± 0.12
- DnaJ homolog subfamily B member 1 N36E, P25685 — within error, -0.174 ± 0.084
- DnaJ homolog subfamily B member 1 N36F, P25685 — lower, -0.415 ± 0.12
- DnaJ homolog subfamily B member 1 N36G, P25685 — within error, -0.029 ± 0.08
- DnaJ homolog subfamily B member 1 N36H, P25685 — within error, 0.002 ± 0.11
- DnaJ homolog subfamily B member 1 N36I, P25685 — within error, -0.181 ± 0.13
- DnaJ homolog subfamily B member 1 N36K, P25685 — within error, -0.112 ± 0.085
- DnaJ homolog subfamily B member 1 N36L, P25685 — within error, 0.009 ± 0.054
- DnaJ homolog subfamily B member 1 N36M, P25685 — within error, 0.035 ± 0.13
- DnaJ homolog subfamily B member 1 N36P, P25685 — within error, -0.096 ± 0.086
- DnaJ homolog subfamily B member 1 N36R, P25685 — within error, -0.14 ± 0.093
- DnaJ homolog subfamily B member 1 N36S, P25685 — within error, 0.079 ± 0.06
- DnaJ homolog subfamily B member 1 N36T, P25685 — within error, 0.092 ± 0.1
- DnaJ homolog subfamily B member 1 N36V, P25685 — within error, -0.158 ± 0.088
- DnaJ homolog subfamily B member 1 N36W, P25685 — within error, -0.097 ± 0.099
- DnaJ homolog subfamily B member 1 N36Y, P25685 — within error, -0.195 ± 0.11
- DnaJ homolog subfamily B member 1 P33A, P25685 — within error, -0.055 ± 0.075
- DnaJ homolog subfamily B member 1 P33C, P25685 — within error, -0.11 ± 0.1
- DnaJ homolog subfamily B member 1 P33E, P25685 — within error, -0.096 ± 0.087
- DnaJ homolog subfamily B member 1 P33F, P25685 — lower, -0.207 ± 0.093
- DnaJ homolog subfamily B member 1 P33G, P25685 — within error, 0.017 ± 0.064
- DnaJ homolog subfamily B member 1 P33H, P25685 — lower, -0.292 ± 0.15
- DnaJ homolog subfamily B member 1 P33I, P25685 — within error, -0.085 ± 0.097
- DnaJ homolog subfamily B member 1 P33L, P25685 — within error, -0.091 ± 0.056
- DnaJ homolog subfamily B member 1 P33M, P25685 — within error, 0.039 ± 0.079
- DnaJ homolog subfamily B member 1 P33N, P25685 — within error, -0.009 ± 0.094
- DnaJ homolog subfamily B member 1 P33Q, P25685 — within error, 0.057 ± 0.1
- DnaJ homolog subfamily B member 1 P33R, P25685 — within error, -0.06 ± 0.078
- DnaJ homolog subfamily B member 1 P33S, P25685 — within error, 0.018 ± 0.083
- DnaJ homolog subfamily B member 1 P33V, P25685 — within error, -0.078 ± 0.076
- DnaJ homolog subfamily B member 1 P33W, P25685 — lower, -0.455 ± 0.096
- DnaJ homolog subfamily B member 1 P33Y, P25685 — lower, -0.245 ± 0.11
- DnaJ homolog subfamily B member 1 P39C, P25685 — within error, -0.016 ± 0.15
- DnaJ homolog subfamily B member 1 P39D, P25685 — within error, -0.339 ± 0.27
- DnaJ homolog subfamily B member 1 P39E, P25685 — within error, 0.064 ± 0.097
- DnaJ homolog subfamily B member 1 P39F, P25685 — within error, -0.041 ± 0.2
- DnaJ homolog subfamily B member 1 P39G, P25685 — lower, -0.287 ± 0.16
- DnaJ homolog subfamily B member 1 P39H, P25685 — within error, 0.054 ± 0.28
- DnaJ homolog subfamily B member 1 P39I, P25685 — within error, -0.038 ± 0.15
- DnaJ homolog subfamily B member 1 P39K, P25685 — within error, 0.027 ± 0.14
- DnaJ homolog subfamily B member 1 P39N, P25685 — within error, 0.035 ± 0.12
- DnaJ homolog subfamily B member 1 P39R, P25685 — within error, 0.041 ± 0.1
- DnaJ homolog subfamily B member 1 P39S, P25685 — within error, -0.078 ± 0.069
- DnaJ homolog subfamily B member 1 P39T, P25685 — within error, 0.133 ± 0.13
- DnaJ homolog subfamily B member 1 P39V, P25685 — within error, 0.001 ± 0.12
- DnaJ homolog subfamily B member 1 P39W, P25685 — within error, 0.026 ± 0.12
- DnaJ homolog subfamily B member 1 P39Y, P25685 — within error, -0.222 ± 0.14
- DnaJ homolog subfamily B member 1 P58A, P25685 — within error, -0.081 ± 0.09
- DnaJ homolog subfamily B member 1 P58C, P25685 — within error, -0.256 ± 0.22
- DnaJ homolog subfamily B member 1 P58D, P25685 — lower, -0.332 ± 0.14
- DnaJ homolog subfamily B member 1 P58E, P25685 — within error, -0.149 ± 0.086
- DnaJ homolog subfamily B member 1 P58F, P25685 — lower, -0.407 ± 0.25
- DnaJ homolog subfamily B member 1 P58G, P25685 — lower, -0.238 ± 0.079
- DnaJ homolog subfamily B member 1 P58H, P25685 — within error, -0.192 ± 0.19
- DnaJ homolog subfamily B member 1 P58I, P25685 — within error, -0.256 ± 0.16
- DnaJ homolog subfamily B member 1 P58K, P25685 — within error, 0.021 ± 0.31
- DnaJ homolog subfamily B member 1 P58L, P25685 — within error, -0.163 ± 0.057
- DnaJ homolog subfamily B member 1 P58N, P25685 — within error, -0.306 ± 0.2
- DnaJ homolog subfamily B member 1 P58Q, P25685 — within error, -0.18 ± 0.097
- DnaJ homolog subfamily B member 1 P58R, P25685 — within error, -0.11 ± 0.073
- DnaJ homolog subfamily B member 1 P58S, P25685 — within error, -0.112 ± 0.089
- DnaJ homolog subfamily B member 1 P58T, P25685 — within error, -0.143 ± 0.14
- DnaJ homolog subfamily B member 1 P58V, P25685 — within error, -0.191 ± 0.094
- DnaJ homolog subfamily B member 1 P58W, P25685 — lower, -0.236 ± 0.085
- DnaJ homolog subfamily B member 1 P58Y, P25685 — within error, -0.229 ± 0.13
- DnaJ homolog subfamily B member 1 Q7A, P25685 — lower, -0.386 ± 0.12
- DnaJ homolog subfamily B member 1 Q7C, P25685 — within error, 0.031 ± 0.13
- DnaJ homolog subfamily B member 1 Q7E, P25685 — lower, -0.547 ± 0.13
- DnaJ homolog subfamily B member 1 Q7F, P25685 — within error, 0.066 ± 0.11
- DnaJ homolog subfamily B member 1 Q7G, P25685 — within error, -0.315 ± 0.21
- DnaJ homolog subfamily B member 1 Q7H, P25685 — within error, -0.246 ± 0.15
- DnaJ homolog subfamily B member 1 Q7I, P25685 — within error, -0.144 ± 0.17
- DnaJ homolog subfamily B member 1 Q7K, P25685 — within error, -0.014 ± 0.12
- DnaJ homolog subfamily B member 1 Q7L, P25685 — within error, -0.049 ± 0.057
- DnaJ homolog subfamily B member 1 Q7N, P25685 — within error, 0.019 ± 0.13
- DnaJ homolog subfamily B member 1 Q7P, P25685 — lower, -0.567 ± 0.088
- DnaJ homolog subfamily B member 1 Q7R, P25685 — lower, -0.185 ± 0.071
- DnaJ homolog subfamily B member 1 Q7S, P25685 — lower, -0.286 ± 0.081
- DnaJ homolog subfamily B member 1 Q7T, P25685 — within error, -0.008 ± 0.078
- DnaJ homolog subfamily B member 1 Q7V, P25685 — lower, -0.307 ± 0.087
- DnaJ homolog subfamily B member 1 Q7W, P25685 — within error, -0.207 ± 0.15

— the Human Domainome abundance scans (Beltran et al. 2025)
